In patent US11319374B2, “Inhibitors of prototypic galectin dimerization and uses thereof” (INSTITUT NATIONAL DE LA RECHERCHE SCIENTIFIQUE, priority 2015, dated 2022):

How the values were obtained:
[1] = molecular target: T1, recombinant human Gal-1 (hGal-1) (Homo sapiens, UniProt P09382); test: hGal-1 dimer disruption (galectin selectivity control), low-SDS Western blotting; type: biochemical; details: recombinant hGal-1, FIG. 2C
T1 construct: made in house; host or cells: E. coli BL21 (DE3)
Experimental: Production of recombinant hGal-7 and hGal-1. Human Gal-7 cDNA was cloned into pET-22b(+) using Ndel and HindIII restriction enzymes. Human pET-Gal-1 vector was generously donated by Dr. S. Sato (McGill University, QC, Canada). The proteins were produced in E. coli BL21 (DE3) cells at 37° C. Isopropyl p-D-1-thiogalactopyranoside (IPTG) (1 mM) was added to the bacterial culture at OD600nm=0.6-0.7 and then incubated for 4 h at 37° C. to allow protein production. Bacterial pellets were resuspended in lysis buffer (0.7 mg/mL lysozyme, 10 mM Tris pH 8, 100 mM NaCl, 1 mM EDTA, 1 mM DTT and a protease inhibitor cocktail) and then incubated for 1 h at 37° C. prior to centrifugation for 30 min at 15,000×g (4° C.). The supernatant was then filtered with 500 mL bottle top filter ([…]) (Corning®, New York, N.Y., USA) and then ran through a lactose-agarose column (Sigma®, St. Louis, Mo., USA). The protein was eluted in 1 mL fractions with 150 mM lactose solution. Purified fractions were analyzed by SDS-PAGE. […]
To determine whether these peptides could inhibit the formation of the hGal-7 homodimer, recombinant hGal-7 (0.5 μM) was incubated with increasing concentrations of hGal-7(13-25), hGal-7(85-102), hGal-7(95-108) or hGal 7(129-135) and the formation of homodimers was measured. […]

[2] = molecular target: T2, hGal-7/Bcl-2 heterodimer (Homo sapiens, UniProt P47929); test: hGal-7/Bcl-2 heterodimer disruption, low-SDS Western blotting with anti-Gal-7 antibody; type: biochemical; details: hGal-7 and Bcl-2 each 0.5 μM, especially at the highest dose of 500 μM, FIG. 12C
T2 construct: host or cells: E. coli BL21 (DE3) (hGal-7)
Experimental: FIGS. 12A to 12C show the dose-dependent disruption of the hGal-7/Bcl-2 heterodimer in the presence of the hGal-7(129-135) peptide. FIGS. 12A and 12B: detection of hGal-7/Bcl-2 heterodimers in the presence of the indicated amounts of recombinant Bcl-2 using an anti-gal-7 antibody (FIG. 12A) or an anti-Bcl-2 antibody (FIG. 12B). FIG. 12C: the recombinant hGal-7 and Bcl-2 (each at 0.5 μM) were incubated with increasing concentrations of hGal-7(129-135) in 20 mM potassium phosphate buffer (pH 7.1). The effect of hGal-7(129-135) on the homodimerization and heterodimerization (with Bcl-2) of hGal-7 was assessed by Western blotting in low-SDS conditions with an anti-Gal-7 antibody.
Production of recombinant hGal-7 and hGal-1. Human Gal-7 cDNA was cloned into pET-22b(+) using Ndel and HindIII restriction enzymes. Human pET-Gal-1 vector was generously donated by Dr. S. Sato (McGill University, QC, Canada). The proteins were produced in E. coli BL21 (DE3) cells at 37° C. Isopropyl p-D-1-thiogalactopyranoside (IPTG) (1 mM) was added to the bacterial culture at OD600nm=0.6-0.7 and then incubated for 4 h at 37° C. to allow protein production. […] Purified fractions were analyzed by SDS-PAGE. […]

T1 sequence (P09382 2-135 limits assumed): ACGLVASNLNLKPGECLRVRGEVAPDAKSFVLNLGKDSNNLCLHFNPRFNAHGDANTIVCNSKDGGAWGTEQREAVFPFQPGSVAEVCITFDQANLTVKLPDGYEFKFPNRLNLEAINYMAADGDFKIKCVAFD
T2 sequence (P47929 2-136 limits assumed, one chain of several): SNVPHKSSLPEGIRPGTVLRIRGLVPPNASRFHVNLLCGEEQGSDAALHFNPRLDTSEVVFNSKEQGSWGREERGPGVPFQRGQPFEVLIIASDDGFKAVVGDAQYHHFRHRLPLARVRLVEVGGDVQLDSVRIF

H-Leu-Asp-Ser-Val-Arg-Ile-Phe-NH2 (H-LDSVRIF-NH2; listed as Homo sapiens) [hGal-7(129-135), peptide corresponding to residues 129-135 of hGal-7]
effect on hGal-1 dimer [1]: No such effect was observed | amount of hGal-7/Bcl-2 heterodimers [2]: decreased
